Measurements published in PMC11005723, “Development of Complementary Photo‐arginine/lysine to Promote Discovery of Arg/Lys hPTMs Interactomes” (Advanced Science, 2024).
Non-standard residues stand in square brackets, D forms with d. Primed or numbered codes have the meaning given here. No end group written: not given here. *: point of attachment. R(dz)″ = photo-arginine carrying a diazirine photo-crosslinker; Biotin = O=C1N[C@H]2[C@H](CS[C@H]2CCCCC(=O)*)N1

Biological target: PHD domain of UHRF1 (UHRF1PHD)
Test: ITC; 25 °C, MicroCal PEAQ-ITC; protein in the cell titrated with 19 injections of peptide

Kd: 10.6 µM
Binder: A[R(dz)″]TKQTARKSTGGK(Biotin)A-NH2 [H3K4‐R2dz (probe 1)]
